The values below come from paper PMC9757748.

Test [1] addresses N-terminally hexahistidine-tagged full-length BcsH (Bcs^H^isH^FL) (G. hansenii). As to the kind of experiment: SDS-PAGE and Western blot.
In test [2] the target is BcsD (purified alone via a cleavable N-terminal hexahistidine tag, Bcs^H^isD) (G. hansenii). As to the kind of experiment: cryo-EM structure.

Turning to “N-terminally hexahistidine-tagged full-length BcsH (Bcs^H^isH^FL) (natural protein)”, the stoichiometry N in test [1] worked out at 2.

In the case of “BcsD (purified alone via a cleavable N-terminal hexahistidine tag, Bcs^H^isD) (natural protein)”, in test [2], the stoichiometry N is 8.
